Source: US20240059766A1

Key:
[1] = molecular target: Tau225-240 phospho-peptide (pT231) (human); test: BLI
[2] = molecular target: Tau217-234 phospho-peptide (pT217/pT220/pT231) (human); test: BLI
[3] = molecular target: Tau204-222 phospho-peptide (pT217) (human); test: one point ELISA
[4] = molecular target: Tau204-222 phospho-peptide (pT212/pS214) (human); test: one point ELISA
[5] = molecular target: Tau204-222 phospho-peptide (pS214/pT217) (human); test: one point ELISA
[6] = molecular target: Tau204-222 phospho-peptide (pT212/pT217) (human); test: one point ELISA
[7] = molecular target: Tau204-222 phospho-peptide (pT212) (human); test: one point ELISA
[8] = molecular target: Tau204-222 phospho-peptide (pT212/pS214/pT217) (human); test: one point ELISA
wtTau C2 (human) = test: one point ELISA
[9] = molecular target: Tau204-222 phospho-peptide (pS214) (human); test: one point ELISA
[10] = molecular target: Peptide 5 (tPeptide 5) (pT212/pS214/pT217) (human); test: one point ELISA
[11] = molecular target: Tau191-214 phospho-peptide (pS202/pT205) (human); test: one point ELISA
[12] = molecular target: Tau191-214 phospho-peptide (pS199/pS202/pT205) (human); test: one point ELISA
[13] = molecular target: Tau191-214 phospho-peptide (pS202) (human); test: one point ELISA
[14] = molecular target: SCBio-4PEG-Peptide (Tau191-214) pS199-old (human); test: one point ELISA
[15] = molecular target: Tau191-214 phospho-peptide (pS199) (human); test: one point ELISA
[16] = molecular target: Tau191-214 phospho-peptide (pS199/pT205) (human); test: one point ELISA
[17] = molecular target: Tau191-214 phospho-peptide (pS199/pS202) (human); test: one point ELISA
[18] = molecular target: Tau191-214 phospho-peptide (pT205) (human); test: one point ELISA
[19] = molecular target: AT8 peptide (amino acids 195-215 of tau) (human); test: BLI (Octet), peptide on streptavidin tip
Sequence of AT8 peptide (amino acids 195-215 of tau) (human) (peptide, as listed by the source): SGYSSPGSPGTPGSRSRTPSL

Sequence of Tau191-214 phospho-peptide (pS202) (human) (peptide, as listed by the source): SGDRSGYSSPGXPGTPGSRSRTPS
Sequence of Tau191-214 phospho-peptide (pT205) (human) (peptide, as listed by the source): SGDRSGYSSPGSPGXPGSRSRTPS
Sequence of Tau191-214 phospho-peptide (pS199) (human) (peptide, as listed by the source): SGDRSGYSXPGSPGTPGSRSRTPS
Sequence of SCBio-4PEG-Peptide (Tau191-214) pS199-old (human) (peptide, as listed by the source): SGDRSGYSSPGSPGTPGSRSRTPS

Kd [1] [pM] | Kd [2] [pM] | OD450 [3] [OD450 nm] | OD450 [4] [OD450 nm] | OD450 [5] [OD450 nm] | OD450 [6] [OD450 nm] | OD450 [7] [OD450 nm] | OD450 [8] [OD450 nm] | OD450 (wtTau C2 (human)) [OD450 nm] | OD450 [9] [OD450 nm] | OD450 [10] [OD450 nm] | OD450 [11] [OD450 nm] | OD450 [12] [OD450 nm] | OD450 [13] [OD450 nm] | OD450 [14] [OD450 nm] | OD450 [15] [OD450 nm] | OD450 [16] [OD450 nm] | OD450 [17] [OD450 nm] | OD450 [18] [OD450 nm] | Kd [19] [pM] | Substance
– | – | 0.068 | 0.071 | 0.067 | 0.069 | 0.069 | 0.187 | – | 0.065 | – | – | – | – | – | – | – | – | – | – | anti-tau antibody AT100 (ThermoFisher, Waltham, MA)
– | – | 0.083 | 0.059 | 0.059 | 0.057 | 0.06 | 0.053 | 0.124 | 0.061 | 0.141 | 0.249 | 0.245 | 0.055 | 0.06 | 0.058 | 0.09 | 0.062 | 0.054 | – | hIgG1 isotype control (antibody)

Further lines, the substance ahead of its results:

Substance | Kd [1] [pM] | Kd [2] [pM] | OD450 [3] [OD450 nm] | OD450 [4] [OD450 nm] | OD450 [5] [OD450 nm] | OD450 [6] [OD450 nm] | OD450 [7] [OD450 nm] | OD450 [8] [OD450 nm] | OD450 (wtTau C2 (human)) [OD450 nm] | OD450 [9] [OD450 nm] | OD450 [10] [OD450 nm] | OD450 [11] [OD450 nm] | OD450 [12] [OD450 nm] | OD450 [13] [OD450 nm] | OD450 [14] [OD450 nm] | OD450 [15] [OD450 nm] | OD450 [16] [OD450 nm] | OD450 [17] [OD450 nm] | OD450 [18] [OD450 nm] | Kd [19] [pM]
AT180 (antibody) | 6 | 5 | – | – | – | – | – | – | – | – | – | – | – | – | – | – | – | – | – | –
PT3-hIgG1 (antibody) | – | – | 3.13 | 3.14 | 3.13 | 3.16 | 3.16 | 3.17 | 1.2 | 3.14 | 2.81 | – | – | – | – | – | – | – | – | –
anti-tau antibody AT8 (ThermoFisher, Waltham, MA) | – | – | – | – | – | – | – | – | – | – | – | 2.94 | 3.07 | 0.058 | 0.056 | 0.056 | 0.139 | 2.39 | 0.065 | 309
